The values that follow come from the Immune Epitope Database (IEDB).

As a reminder, the Kd is the concentration at which binding is half-saturated. High values mean a looser complex, low ones a tighter complex.

The target in one experiment is HLA-B*08:01. Put plainly: IEDB peptide-MHC binding, purified MHC/competitive/fluorescence; filed as Kd, often an IC50 or EC50 that approximates it; ≥ and ≤ were set here for values at or beyond the usual limits of such assays. As to conditions: source organism: Vaccinia virus WR.
For a further experiment, the target named is HLA-B*39:01. Described as above.
The next experiment concerns the target HLA-A*02:06. Described as above. As to conditions: source organism: Vaccinia virus WR.
The target of a further experiment is HLA-B*15:01. The experiment is described as above.
A further experiment concerns the target HLA-A*68:02. Described as above. As to conditions: source organism: Vaccinia virus WR.
The target in experiment [1] is HLA-B*18:01. The description is as above. As to conditions: source organism: Vaccinia virus WR.
The target in a further experiment is HLA-A*26:02. The experiment is described as above. As to conditions: source organism: Vaccinia virus WR.
The next experiment deals with HLA-A*24:03. Put plainly: IEDB peptide-MHC binding, purified MHC/direct/fluorescence; filed as Kd, often an IC50 or EC50 that approximates it; ≥ and ≤ were set here for values at or beyond the usual limits of such assays.
The next experiment has as its target HLA-B*58:01. The description is as above.
Experiment [2] concerns the target HLA-A*02:01. The description is as above. As to conditions: source organism: Camelpox virus M-96.
The target in the next experiment is HLA-B*07:02. The experiment is described as above. As to conditions: source organism: Camelpox virus M-96.
A further experiment deals with HLA-B*08:02. Described as above. As to conditions: source organism: Variola virus.
A further experiment concerns the target HLA-A*01:01. Described as above.
The target of the next experiment is HLA-A*11:01. The experiment is described as above.
The target in another experiment is HLA-B*15:17. Described as above.
Experiment [3] concerns the target HLA-A*69:01. The experiment is described as above. As to conditions: source organism: Camelpox virus M-96.
Another experiment concerns the target HLA-A*26:01. Described as above. As to conditions: source organism: Variola virus.
For the next experiment, the target named is HLA-B*57:01. The experiment is described as above.
Experiment [4] deals with HLA-A*31:01. The experiment is described as above. As to conditions: source organism: Camelpox virus M-96.
For the next experiment, the target named is HLA-A*26:03. The description is as above. As to conditions: source organism: Variola virus.
A further experiment deals with HLA-A*32:07. Description: IEDB peptide-MHC binding, purified MHC/competitive/fluorescence; filed as Kd, often an IC50 or EC50 that approximates it; ≥ and ≤ were set here for values at or beyond the usual limits of such assays.
For a further experiment, the target named is HLA-B*83:01. Described as above.
For a further experiment, the target named is HLA-B*15:42. The description is as above.
The next experiment concerns the target HLA-B*45:06. The experiment is described as above.
The target in the next experiment is HLA-C*04:01. The experiment is described as above. As to conditions: source organism: Hantaan virus 76-118.
The next experiment has as its target HLA-A*24:02. Put plainly: IEDB peptide-MHC binding, purified MHC/direct/fluorescence; filed as Kd, often an IC50 or EC50 that approximates it; ≥ and ≤ were set here for values at or beyond the usual limits of such assays. As to conditions: source organism: Orthohantavirus hantanense.
In experiment [5] the target is HLA-A*02:01. Put plainly: IEDB peptide-MHC binding, purified MHC/competitive/fluorescence; filed as Kd, often an IC50 or EC50 that approximates it; ≥ and ≤ were set here for values at or beyond the usual limits of such assays. As to conditions: source organism: Mycobacterium tuberculosis variant bovis BCG str. Pasteur 1173P2.
Experiment [6] deals with HLA-A*69:01. Described as above. As to conditions: source organism: Mycobacterium tuberculosis variant bovis BCG str. Pasteur 1173P2.
A further experiment has as its target HLA-A*02:03. Described as above. As to conditions: source organism: Mycobacterium tuberculosis variant bovis BCG str. Pasteur 1173P2.
Experiment [7] concerns the target HLA-A*31:01. The description is as above. As to conditions: source organism: Mycobacterium tuberculosis variant bovis BCG str. Pasteur 1173P2.
Another experiment has as its target HLA-A*03:01. Put plainly: IEDB peptide-MHC binding, purified MHC/direct/fluorescence; filed as Kd, often an IC50 or EC50 that approximates it; ≥ and ≤ were set here for values at or beyond the usual limits of such assays. As to conditions: source organism: Mycobacterium tuberculosis.
The next experiment has as its target HLA-B*46:01. The description is as above. As to conditions: source organism: Mycobacterium tuberculosis.
The next experiment deals with HLA-B*48:01. The description is as above. As to conditions: source organism: Mycobacterium tuberculosis.
Experiment [8] addresses HLA-B*40:01. Described as above. As to conditions: source organism: Mycobacterium tuberculosis.
In another experiment the target is HLA-B*38:01. The experiment is described as above. As to conditions: source organism: Mycobacterium tuberculosis str. Haarlem.
The target of experiment [9] is HLA-B*18:01. The description is as above. As to conditions: source organism: Mycobacterium tuberculosis.
The target of a further experiment is HLA-B*51:01. The experiment is described as above. As to conditions: source organism: Mycobacterium tuberculosis.
The next experiment concerns the target HLA-B*27:05. The experiment is described as above. As to conditions: source organism: Mycobacterium tuberculosis.
For experiment [10], the target named is HLA-B*40:01. Description: IEDB peptide-MHC binding, purified MHC/competitive/fluorescence; filed as Kd, often an IC50 or EC50 that approximates it; ≥ and ≤ were set here for values at or beyond the usual limits of such assays. As to conditions: source organism: Escherichia coli 536.
Another experiment concerns the target HLA-B*27:20. The description is as above. As to conditions: source organism: Escherichia coli 536.
For the next experiment, the target named is HLA-B*40:13. The experiment is described as above. As to conditions: source organism: Escherichia coli 536.
Setting [11] is: source organism: Vaccinia virus WR.
[12] abbreviates: source organism: Camelpox virus M-96.
Setting [13] is: source organism: Hantaan virus 76-118.
[14] abbreviates: source organism: Mycobacterium tuberculosis.
Setting [15] is: source organism: Escherichia coli 536.

Bounds are passed on as bounds.

In the case of EYYFRNEVF, the Kd in the experiment with HLA-B*08:01 is ≥ 20 µM; in the experiment with HLA-B*39:01 (setting [11]), ≥ 20 µM; in the experiment with HLA-A*02:06 it was 0.153 µM; in the experiment with HLA-B*15:01 (setting [11]), 4.38 µM; in the experiment with HLA-A*68:02, 3.39 µM; in the experiment with HLA-B*18:01 [1] it was 0.0078 µM. Further, the Kd was 3.49 µM with HLA-A*26:02; 0.195 µM in the experiment with HLA-A*24:03 (setting [12]); ≥ 20 µM with HLA-B*58:01 (setting [12]); ≥ 20 µM with HLA-A*02:01 [2]; ≥ 20 µM with HLA-B*07:02; ≥ 20 µM with HLA-B*08:02. For the same sequence, the Kd with HLA-A*01:01 (setting [12]), with HLA-A*11:01 (setting [12]), with HLA-B*15:17 (setting [12]), in the experiment with HLA-A*69:01 [3], with HLA-A*26:01 and in the experiment with HLA-B*57:01 (setting [12]) was ≥ 20 µM each time. Also, the Kd in the experiment with HLA-A*31:01 [4] and with HLA-A*26:03 was ≥ 20 µM in each case.
With RYRTAVCGL, the Kd with HLA-A*32:07 (setting [13]) was 0.0076 µM; with HLA-B*83:01 (setting [13]) it was ≥ 5 µM; with HLA-B*15:42 (setting [13]) it was ≥ 5 µM; with HLA-B*45:06 (setting [13]), ≥ 5 µM; in the experiment with HLA-C*04:01, ≥ 5 µM; in the experiment with HLA-A*24:03 (source organism: Orthohantavirus hantanense) it was 0.0067 µM. In addition, the Kd with HLA-A*24:02 was found to be 0.024 µM.
With RVEESRARL, the Kd with HLA-A*02:01 [5], with HLA-B*15:01 (source organism: Mycobacterium tuberculosis variant bovis BCG str. Pasteur 1173P2), in the experiment with HLA-A*69:01 [6], with HLA-A*02:03, in the experiment with HLA-A*31:01 [7] and with HLA-A*03:01 was ≥ 20 µM each time. Moreover, the Kd with HLA-B*46:01, with HLA-B*48:01, with HLA-B*58:01 (setting [14]), with HLA-B*40:01 [8], with HLA-A*01:01 (setting [14]) and with HLA-B*38:01 was ≥ 20 µM in each case. For the same sequence, the Kd with HLA-A*11:01 (setting [14]) is ≥ 20 µM; with HLA-B*15:17 (setting [14]), 0.0194 µM; in the experiment with HLA-B*18:01 [9], ≥ 20 µM; in the experiment with HLA-B*51:01, ≥ 20 µM; with HLA-B*27:05, ≥ 20 µM; in the experiment with HLA-B*57:01 (setting [14]), 2.5 µM.
Turning to RQRAVRMVL, the Kd was 0.0307 µM in the experiment with HLA-A*32:07 (setting [15]); ≥ 5 µM with HLA-B*83:01 (setting [15]); 1.87 µM with HLA-B*40:01 [10]; 5.18 µM in the experiment with HLA-B*15:42 (setting [15]); ≥ 5 µM with HLA-B*39:01 (setting [15]); 0.0016 µM with HLA-B*27:20. Moreover, the Kd in the experiment with HLA-B*45:06 (setting [15]) was ≥ 5 µM; with HLA-B*15:01 (setting [15]), 0.354 µM; in the experiment with HLA-B*40:13, 0.0514 µM.
